Experimental data reported in IntAct's records for PubMed 17525731.

Experiments:
creb1_mouse Creb1 [1] = target: creb1_mouse Creb1 (UniProt Q01147)
creb1_mouse Creb1 [2] = target: creb1_mouse Creb1 (UniProt Q01147); remark: listed apart in the source

creb1_mouse Creb1, sequence (Q01147 whole entry): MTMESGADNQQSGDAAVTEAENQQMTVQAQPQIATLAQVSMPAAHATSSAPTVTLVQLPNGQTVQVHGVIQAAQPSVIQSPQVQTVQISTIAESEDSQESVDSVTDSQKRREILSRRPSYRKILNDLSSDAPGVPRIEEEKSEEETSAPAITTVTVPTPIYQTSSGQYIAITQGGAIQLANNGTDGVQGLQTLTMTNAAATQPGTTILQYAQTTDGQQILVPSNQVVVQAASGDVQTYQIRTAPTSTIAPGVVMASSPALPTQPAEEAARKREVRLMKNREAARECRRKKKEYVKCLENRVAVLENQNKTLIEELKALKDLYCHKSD

## Histone lysine acetyltransferase CREBBP (Mus musculus), P45481 Y658A
Creb1, Q01147-1
Creb1, Q01147-1, sequence (Q01147 other isoform, or with tags, fused parts or gaps): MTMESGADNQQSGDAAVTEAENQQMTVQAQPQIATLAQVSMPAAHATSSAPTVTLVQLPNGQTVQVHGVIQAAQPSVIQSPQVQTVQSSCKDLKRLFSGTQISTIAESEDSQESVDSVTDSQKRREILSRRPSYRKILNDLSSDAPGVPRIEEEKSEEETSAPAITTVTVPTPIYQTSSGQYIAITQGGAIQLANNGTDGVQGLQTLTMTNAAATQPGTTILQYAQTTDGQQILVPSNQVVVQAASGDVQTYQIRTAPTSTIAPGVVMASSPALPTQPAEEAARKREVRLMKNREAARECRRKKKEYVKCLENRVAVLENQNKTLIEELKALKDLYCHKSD
  effect of a mutation on the interaction: disrupting interaction
creb1_mouse Creb1 [1]
  effect of a mutation on the interaction: disrupting interaction

## Histone lysine acetyltransferase CREBBP (Mus musculus), P45481 Y650A
Creb1, Q01147-1
  effect of a mutation on the interaction: disrupting interaction
creb1_mouse Creb1 [1]
  effect of a mutation on the interaction: disrupting interaction

## Histone acetyltransferase p300 (Homo sapiens), Q09472 A634Q
creb1_mouse Creb1 [2]
  effect of a mutation on the interaction: disrupting interaction

## Histone lysine acetyltransferase CREBBP (Mus musculus), P45481 A654Q
Creb1, Q01147-1
  effect of a mutation on the interaction: disrupting interaction
creb1_mouse Creb1 [1]
  effect of a mutation on the interaction: disrupting interaction

## Histone acetyltransferase p300 (Homo sapiens), Q09472 Y630A
creb1_mouse Creb1 [2]
  effect of a mutation on the interaction: disrupting interaction

## Histone acetyltransferase p300 (Homo sapiens), Q09472 Y638A
creb1_mouse Creb1 [2]
  effect of a mutation on the interaction: disrupting interaction
